The results in this text go back to patent US20080263689A1 (GARVAN INSTITUTE OF MEDICAL RESEARCH, published 2008).

The target in this assay is T1, insulin receptor (IR) of mouse primary hepatocytes (mouse, UniProt P15208 28-748; P15208 753-1372).
T1 construct: whole, on cells; Endogenous receptor on intact primary hepatocytes from wild type or PKCε-/- mice; in cell lysates for the co-precipitation
Put plainly: co-precipitation from hepatocytes of wild type mice; data not shown.

T1 sequence (P15208 28-748 limits assumed, chain 1 of 2): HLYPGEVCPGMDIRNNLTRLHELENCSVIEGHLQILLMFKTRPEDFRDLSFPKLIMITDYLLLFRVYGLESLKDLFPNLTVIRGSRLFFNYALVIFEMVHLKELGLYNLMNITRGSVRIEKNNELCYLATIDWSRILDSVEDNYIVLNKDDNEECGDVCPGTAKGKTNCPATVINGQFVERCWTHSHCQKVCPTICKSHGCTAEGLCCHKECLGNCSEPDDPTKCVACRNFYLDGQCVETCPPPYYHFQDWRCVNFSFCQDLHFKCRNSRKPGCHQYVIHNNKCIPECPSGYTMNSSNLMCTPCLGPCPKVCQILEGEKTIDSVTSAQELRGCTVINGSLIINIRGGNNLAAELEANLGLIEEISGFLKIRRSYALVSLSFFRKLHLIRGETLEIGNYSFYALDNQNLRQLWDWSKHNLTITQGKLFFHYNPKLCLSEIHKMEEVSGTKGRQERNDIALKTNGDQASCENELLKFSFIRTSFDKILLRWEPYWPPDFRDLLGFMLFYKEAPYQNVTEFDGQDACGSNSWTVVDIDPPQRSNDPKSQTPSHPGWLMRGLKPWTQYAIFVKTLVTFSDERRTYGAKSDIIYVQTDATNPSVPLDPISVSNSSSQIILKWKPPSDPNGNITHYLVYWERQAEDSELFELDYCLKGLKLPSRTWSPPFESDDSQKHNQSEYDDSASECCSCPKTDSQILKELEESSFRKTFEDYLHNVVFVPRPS
T1 sequence (P15208 753-1372 limits assumed, chain 2 of 2): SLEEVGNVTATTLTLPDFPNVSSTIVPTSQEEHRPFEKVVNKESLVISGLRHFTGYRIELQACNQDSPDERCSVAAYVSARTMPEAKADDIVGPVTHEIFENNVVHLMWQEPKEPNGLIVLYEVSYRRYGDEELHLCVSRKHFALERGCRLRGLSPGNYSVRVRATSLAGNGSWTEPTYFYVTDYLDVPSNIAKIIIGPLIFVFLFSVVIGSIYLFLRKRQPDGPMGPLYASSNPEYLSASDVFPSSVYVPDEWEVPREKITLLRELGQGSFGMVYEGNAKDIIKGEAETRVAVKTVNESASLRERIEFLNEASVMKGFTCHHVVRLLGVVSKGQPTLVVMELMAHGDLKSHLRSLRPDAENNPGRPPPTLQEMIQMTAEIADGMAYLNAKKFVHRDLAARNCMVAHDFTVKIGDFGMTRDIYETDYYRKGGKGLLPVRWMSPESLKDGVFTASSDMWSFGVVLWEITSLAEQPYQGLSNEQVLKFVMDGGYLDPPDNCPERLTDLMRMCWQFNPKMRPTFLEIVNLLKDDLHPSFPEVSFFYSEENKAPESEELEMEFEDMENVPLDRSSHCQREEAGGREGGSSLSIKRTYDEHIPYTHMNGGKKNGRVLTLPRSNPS

B1: protein kinase C epsilon (PKCε), murine (enzyme)
chain: MVVFNGLLKIKICEAVSLKPTAWSLRHAVGPRPQTFLLDPYIALNVDDSRIGQTATKQKTNSPAWHDEFVTDVCNGRKIELAVFHDAPIGYDDFVANCTIQFEELLQNGSRHFEDWIDLEPEGKVYVIIDLSGSSGEAPKDNEERVFRERMRPRKRQGAVRRRVHQVNGHKFMATYLRQPTYCSHCRDFIWGVIGKQGYQCQVCTCVVHKRCHELIITKCAGLKKQETPDEVGSQRFSVNMPHKFGIHNYKVPTFCDHCGSLLWGLLRQGLQCKVCKMNVHRRCETNVAPNCGVDARGIAKVLADLGVTPDKITNSGQRRKKLAAGAESPQPASGNSPSEDDRSKSAPTSPCDQELKELENNIRKALSFDNRGEEHRASSATDGQLASPGENGEVRPGQAKRLGLDEFNFIKVLGKGSFGKVMLAELKGKDEVYAVKVLKKDVILQDDDVDCTMTEKRILALARKHPYLTQLYCCFQTKDRLFFVMEYVNGGDLMFQIQRSRKFDEPRSRFYAAEVTSALMFLHQHGVIYRDLKLDNILLDAEGHCKLADFGMCKEGIMNGVTTTTFCGTPDYIAPEILQELEYGPSVDWWALGVLMYEMMAGQPPFEADNEDDLFESILHDDVLYPVWLSKEAVSILKAFMTKNPHKRLGCVAAQNGEDAIKQHPFFKEIDWVLLEQKKIKPPFKPRIKTKRDVNNFDQDFTREEPILTLVDEAIIKQINQEEFKGFSYFGEDLMP
notes: Endogenous PKCε in hepatocytes of wild type mice
For B1, the binding result is “no binding”.
